Experimental data from the supplement of paper PMC7125110.
± gives the standard error. This sample holds only a part of the variants without activity.

B1: glmS ribozyme (parent)
chain: AUAAAAGCGCCAGAACUACAGAAAUGUAGUUGACGAGGAGGAGGUUUAUCGAAUUUUCGGCGGAUGCCUCCAAA

Assays:
Conditions in all cases: with glucosamine-6-phosphate
glucosamine-6-phosphate [1] = variants of: B1; experiment: self-cleavage kobs at 640 uM GlcN6P; higher = faster cleavage; RNA array
Procedure, shortened: (§1)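 kobs was derived by fitting per-tile medians to one- or two-exponential decays after normalising signals to baseline and to non-cleaving reference variants. Those signals came from barcoded ribozyme variants transcribed in situ by E. coli RNA polymerase on sequenced MiSeq chips, followed through a hybridised Cy3 probe at 37 °C and imaged over ~14 h. Glucosamine-6-phosphate (40 μM to 10 mM) in HEPES/KCl/Mg(OAc)2 buffer was flowed in. Weighted Michaelis–Menten fits across concentrations then gave kcat and KM.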

glucosamine-6-phosphate [2] = variants of: B1; experiment: self-cleavage kobs at 2500 uM GlcN6P; higher = faster cleavage; RNA array
Procedure, shortened: as §1

glucosamine-6-phosphate [3] = variants of: B1; experiment: self-cleavage kobs at 10000 uM GlcN6P; higher = faster cleavage; RNA array
Procedure, shortened: as §1

G7U A14C G37C
self-cleavage kobs at 640 uM GlcN6P (glucosamine-6-phosphate [1]): < 1e-05 s⁻¹ | self-cleavage kobs at 2500 uM GlcN6P (glucosamine-6-phosphate [2]): < 1e-05 s⁻¹

C50G C61U G66U
self-cleavage kobs at 640 uM GlcN6P (glucosamine-6-phosphate [1]): 7.98e-05 ± 2.8e-05 s⁻¹ | self-cleavage kobs at 2500 uM GlcN6P (glucosamine-6-phosphate [2]): 0.00022 ± 8e-05 s⁻¹

A14G G40U C61G
self-cleavage kobs at 640 uM GlcN6P (glucosamine-6-phosphate [1]): < 1e-05 s⁻¹ | self-cleavage kobs at 2500 uM GlcN6P (glucosamine-6-phosphate [2]): < 1e-05 s⁻¹

A15U G38U A39C G41U U49G C70G C71G
self-cleavage kobs at 640 uM GlcN6P (glucosamine-6-phosphate [1]): < 1e-05 s⁻¹

G51C G63U
self-cleavage kobs at 640 uM GlcN6P (glucosamine-6-phosphate [1]): < 1e-05 s⁻¹ | self-cleavage kobs at 10000 uM GlcN6P (glucosamine-6-phosphate [3]): < 1e-05 s⁻¹

A12C G41A A42U G51C C68G C70U
self-cleavage kobs at 640 uM GlcN6P (glucosamine-6-phosphate [1]): < 1e-05 s⁻¹

A12C A14G G60U
self-cleavage kobs at 640 uM GlcN6P (glucosamine-6-phosphate [1]): < 1e-05 s⁻¹

A12U A39C A42U G60A
self-cleavage kobs at 640 uM GlcN6P (glucosamine-6-phosphate [1]): < 1e-05 s⁻¹ | self-cleavage kobs at 10000 uM GlcN6P (glucosamine-6-phosphate [3]): < 1e-05 s⁻¹

G51C A64C
self-cleavage kobs at 640 uM GlcN6P (glucosamine-6-phosphate [1]): < 1e-05 s⁻¹ | self-cleavage kobs at 10000 uM GlcN6P (glucosamine-6-phosphate [3]): < 1e-05 s⁻¹

U30A A48C C58A G60A
self-cleavage kobs at 640 uM GlcN6P (glucosamine-6-phosphate [1]): < 1e-05 s⁻¹

C8G A14U A42G
self-cleavage kobs at 640 uM GlcN6P (glucosamine-6-phosphate [1]): < 1e-05 s⁻¹

A6U A36C A39U C71G
self-cleavage kobs at 640 uM GlcN6P (glucosamine-6-phosphate [1]): < 1e-05 s⁻¹ | self-cleavage kobs at 2500 uM GlcN6P (glucosamine-6-phosphate [2]): < 1e-05 s⁻¹

C10U A39U G62A
self-cleavage kobs at 640 uM GlcN6P (glucosamine-6-phosphate [1]): < 1e-05 s⁻¹

U30A G51C
self-cleavage kobs at 640 uM GlcN6P (glucosamine-6-phosphate [1]): < 1e-05 s⁻¹ | self-cleavage kobs at 10000 uM GlcN6P (glucosamine-6-phosphate [3]): < 1e-05 s⁻¹

C8A U31A G38C G40U C50G G60C C71A
self-cleavage kobs at 640 uM GlcN6P (glucosamine-6-phosphate [1]): < 1e-05 s⁻¹

G44A C50G
self-cleavage kobs at 640 uM GlcN6P (glucosamine-6-phosphate [1]): < 1e-05 s⁻¹ | self-cleavage kobs at 2500 uM GlcN6P (glucosamine-6-phosphate [2]): < 1e-05 s⁻¹ | self-cleavage kobs at 10000 uM GlcN6P (glucosamine-6-phosphate [3]): < 1e-05 s⁻¹

A36U A39G
self-cleavage kobs at 640 uM GlcN6P (glucosamine-6-phosphate [1]): < 1e-05 s⁻¹

C50G C58U C61U
self-cleavage kobs at 640 uM GlcN6P (glucosamine-6-phosphate [1]): 0.000479 ± 0.00011 s⁻¹

C58U C67U U69A
self-cleavage kobs at 640 uM GlcN6P (glucosamine-6-phosphate [1]): 6.03e-05 ± 2.7e-05 s⁻¹ | self-cleavage kobs at 2500 uM GlcN6P (glucosamine-6-phosphate [2]): 0.000214 ± 9e-05 s⁻¹

U57A C71U
self-cleavage kobs at 640 uM GlcN6P (glucosamine-6-phosphate [1]): 5.18e-05 ± 2.1e-05 s⁻¹ | self-cleavage kobs at 2500 uM GlcN6P (glucosamine-6-phosphate [2]): 0.000132 ± 3.1e-05 s⁻¹ | self-cleavage kobs at 10000 uM GlcN6P (glucosamine-6-phosphate [3]): 0.000407 ± 0.00015 s⁻¹

G44U A64U C68A
self-cleavage kobs at 640 uM GlcN6P (glucosamine-6-phosphate [1]): < 1e-05 s⁻¹

A6C G35C U54A
self-cleavage kobs at 640 uM GlcN6P (glucosamine-6-phosphate [1]): < 1e-05 s⁻¹ | self-cleavage kobs at 2500 uM GlcN6P (glucosamine-6-phosphate [2]): < 1e-05 s⁻¹ | self-cleavage kobs at 10000 uM GlcN6P (glucosamine-6-phosphate [3]): < 1e-05 s⁻¹

A6C A42U C50U U57A G62C
self-cleavage kobs at 640 uM GlcN6P (glucosamine-6-phosphate [1]): < 1e-05 s⁻¹

G35U A42G U55A
self-cleavage kobs at 640 uM GlcN6P (glucosamine-6-phosphate [1]): < 1e-05 s⁻¹

A12U G40C C61A
self-cleavage kobs at 640 uM GlcN6P (glucosamine-6-phosphate [1]): < 1e-05 s⁻¹

U31A U65C
self-cleavage kobs at 640 uM GlcN6P (glucosamine-6-phosphate [1]): 6.63e-05 ± 2.8e-05 s⁻¹ | self-cleavage kobs at 2500 uM GlcN6P (glucosamine-6-phosphate [2]): 0.000132 ± 3.7e-05 s⁻¹ | self-cleavage kobs at 10000 uM GlcN6P (glucosamine-6-phosphate [3]): 0.000395 ± 0.0001 s⁻¹

A14G G35A C71G
self-cleavage kobs at 640 uM GlcN6P (glucosamine-6-phosphate [1]): < 1e-05 s⁻¹

A12C G35A A36C U56G G60C
self-cleavage kobs at 640 uM GlcN6P (glucosamine-6-phosphate [1]): < 1e-05 s⁻¹ | self-cleavage kobs at 2500 uM GlcN6P (glucosamine-6-phosphate [2]): < 1e-05 s⁻¹

C10G U30C C68G
self-cleavage kobs at 640 uM GlcN6P (glucosamine-6-phosphate [1]): 9.65e-05 ± 3.5e-05 s⁻¹

A42U G44C C68U
self-cleavage kobs at 640 uM GlcN6P (glucosamine-6-phosphate [1]): < 1e-05 s⁻¹ | self-cleavage kobs at 2500 uM GlcN6P (glucosamine-6-phosphate [2]): < 1e-05 s⁻¹

G35U A39U U45G U46C
self-cleavage kobs at 640 uM GlcN6P (glucosamine-6-phosphate [1]): < 1e-05 s⁻¹ | self-cleavage kobs at 2500 uM GlcN6P (glucosamine-6-phosphate [2]): < 1e-05 s⁻¹

A14U C68G
self-cleavage kobs at 640 uM GlcN6P (glucosamine-6-phosphate [1]): 6.11e-05 ± 1.7e-05 s⁻¹ | self-cleavage kobs at 2500 uM GlcN6P (glucosamine-6-phosphate [2]): 3.41e-05 ± 1.3e-05 s⁻¹

C10A U47A C70G
self-cleavage kobs at 640 uM GlcN6P (glucosamine-6-phosphate [1]): 0.000288 ± 0.00012 s⁻¹

G9C A39U G40U
self-cleavage kobs at 640 uM GlcN6P (glucosamine-6-phosphate [1]): < 1e-05 s⁻¹ | self-cleavage kobs at 2500 uM GlcN6P (glucosamine-6-phosphate [2]): < 1e-05 s⁻¹

A15C G29C G35A C50A
self-cleavage kobs at 640 uM GlcN6P (glucosamine-6-phosphate [1]): < 1e-05 s⁻¹ | self-cleavage kobs at 2500 uM GlcN6P (glucosamine-6-phosphate [2]): < 1e-05 s⁻¹

G9A G44U A52G U65G
self-cleavage kobs at 640 uM GlcN6P (glucosamine-6-phosphate [1]): < 1e-05 s⁻¹ | self-cleavage kobs at 2500 uM GlcN6P (glucosamine-6-phosphate [2]): < 1e-05 s⁻¹

A36C A39C A52U
self-cleavage kobs at 640 uM GlcN6P (glucosamine-6-phosphate [1]): < 1e-05 s⁻¹

C11A C50G U57G
self-cleavage kobs at 640 uM GlcN6P (glucosamine-6-phosphate [1]): 8.51e-05 ± 3e-05 s⁻¹ | self-cleavage kobs at 2500 uM GlcN6P (glucosamine-6-phosphate [2]): 7.4e-05 ± 2.5e-05 s⁻¹

G60A C61G C67G
self-cleavage kobs at 640 uM GlcN6P (glucosamine-6-phosphate [1]): < 1e-05 s⁻¹

C16G A33U G38A G43U C67U
self-cleavage kobs at 640 uM GlcN6P (glucosamine-6-phosphate [1]): < 1e-05 s⁻¹ | self-cleavage kobs at 2500 uM GlcN6P (glucosamine-6-phosphate [2]): < 1e-05 s⁻¹

G9C G32U C50U
self-cleavage kobs at 640 uM GlcN6P (glucosamine-6-phosphate [1]): < 1e-05 s⁻¹

C11U A14G A52G
self-cleavage kobs at 640 uM GlcN6P (glucosamine-6-phosphate [1]): 8.93e-05 ± 1.6e-05 s⁻¹ | self-cleavage kobs at 2500 uM GlcN6P (glucosamine-6-phosphate [2]): 0.00029 ± 8e-05 s⁻¹

A33G A39C G44A C71G
self-cleavage kobs at 640 uM GlcN6P (glucosamine-6-phosphate [1]): < 1e-05 s⁻¹ | self-cleavage kobs at 2500 uM GlcN6P (glucosamine-6-phosphate [2]): < 1e-05 s⁻¹

A42G U47G C67U
self-cleavage kobs at 640 uM GlcN6P (glucosamine-6-phosphate [1]): 0.00108 ± 0.00019 s⁻¹ | self-cleavage kobs at 2500 uM GlcN6P (glucosamine-6-phosphate [2]): 0.0013 ± 0.00029 s⁻¹

U65G G66C
self-cleavage kobs at 640 uM GlcN6P (glucosamine-6-phosphate [1]): 0.000223 ± 4.9e-05 s⁻¹ | self-cleavage kobs at 10000 uM GlcN6P (glucosamine-6-phosphate [3]): 0.00137 ± 0.00016 s⁻¹

A12G A42G C61U G63U
self-cleavage kobs at 640 uM GlcN6P (glucosamine-6-phosphate [1]): < 1e-05 s⁻¹

G29U A33U U56A A64G
self-cleavage kobs at 640 uM GlcN6P (glucosamine-6-phosphate [1]): < 1e-05 s⁻¹

G13C G29C
self-cleavage kobs at 640 uM GlcN6P (glucosamine-6-phosphate [1]): 2.89e-05 ± 9.5e-06 s⁻¹ | self-cleavage kobs at 2500 uM GlcN6P (glucosamine-6-phosphate [2]): 3.23e-05 ± 1.2e-05 s⁻¹ | self-cleavage kobs at 10000 uM GlcN6P (glucosamine-6-phosphate [3]): 9.98e-05 ± 2.1e-05 s⁻¹

G41A U49C G60U
self-cleavage kobs at 640 uM GlcN6P (glucosamine-6-phosphate [1]): < 1e-05 s⁻¹

A33C A36U G37U C71U
self-cleavage kobs at 640 uM GlcN6P (glucosamine-6-phosphate [1]): < 1e-05 s⁻¹ | self-cleavage kobs at 2500 uM GlcN6P (glucosamine-6-phosphate [2]): < 1e-05 s⁻¹

A36C A42U G44C A52U
self-cleavage kobs at 640 uM GlcN6P (glucosamine-6-phosphate [1]): < 1e-05 s⁻¹

C8G G29C A42G G51C C58G G59A
self-cleavage kobs at 640 uM GlcN6P (glucosamine-6-phosphate [1]): < 1e-05 s⁻¹

G13A U45C G66A
self-cleavage kobs at 640 uM GlcN6P (glucosamine-6-phosphate [1]): 0.000124 ± 3e-05 s⁻¹ | self-cleavage kobs at 2500 uM GlcN6P (glucosamine-6-phosphate [2]): 9.89e-05 ± 2.4e-05 s⁻¹ | self-cleavage kobs at 10000 uM GlcN6P (glucosamine-6-phosphate [3]): 0.000343 ± 0.00011 s⁻¹

C8A C10G A15G C16G C50A G63U
self-cleavage kobs at 640 uM GlcN6P (glucosamine-6-phosphate [1]): < 1e-05 s⁻¹

G41C C50U G59U
self-cleavage kobs at 640 uM GlcN6P (glucosamine-6-phosphate [1]): < 1e-05 s⁻¹

G63C U69G
self-cleavage kobs at 640 uM GlcN6P (glucosamine-6-phosphate [1]): 5.78e-05 ± 2.2e-05 s⁻¹

C68A U69G
self-cleavage kobs at 640 uM GlcN6P (glucosamine-6-phosphate [1]): 9.62e-05 ± 3.5e-05 s⁻¹

A12G C16A A52U U57G
self-cleavage kobs at 640 uM GlcN6P (glucosamine-6-phosphate [1]): < 1e-05 s⁻¹

G7C C8A A42U
self-cleavage kobs at 640 uM GlcN6P (glucosamine-6-phosphate [1]): < 1e-05 s⁻¹

A6G G51A G59U G60A
self-cleavage kobs at 640 uM GlcN6P (glucosamine-6-phosphate [1]): < 1e-05 s⁻¹ | self-cleavage kobs at 2500 uM GlcN6P (glucosamine-6-phosphate [2]): < 1e-05 s⁻¹

C11U G38C C50U A52C
self-cleavage kobs at 640 uM GlcN6P (glucosamine-6-phosphate [1]): < 1e-05 s⁻¹

A52C U54G
self-cleavage kobs at 640 uM GlcN6P (glucosamine-6-phosphate [1]): < 1e-05 s⁻¹

C8U C19A G35A A36U G51U
self-cleavage kobs at 640 uM GlcN6P (glucosamine-6-phosphate [1]): < 1e-05 s⁻¹

U30G G37A A53G
self-cleavage kobs at 640 uM GlcN6P (glucosamine-6-phosphate [1]): 0.000102 ± 2.5e-05 s⁻¹

G13A U49A U69A
self-cleavage kobs at 640 uM GlcN6P (glucosamine-6-phosphate [1]): 0.00011 ± 3.1e-05 s⁻¹

A48U G62U C70U
self-cleavage kobs at 640 uM GlcN6P (glucosamine-6-phosphate [1]): < 1e-05 s⁻¹

A33C A53U G59A U69G
self-cleavage kobs at 640 uM GlcN6P (glucosamine-6-phosphate [1]): 0.000208 ± 8.8e-05 s⁻¹
